Patent US20260193326A1 (published 2026)
Numbering of substitutions follows the chain as printed.

B1: A4-114 (VHH)
VHH: VQLQESGGGLVQTGGSLRLSCVASGSIFSINTVGWYRQAPGKQRELVATVTRAGSTWYAGSVKGRFTISRDNTKNTIYLQMNSLRPEDTAVYYCHVDELRQSTWTTSNLWGQGTQVTVSS
B2: A4-105 (VHH)
VHH: VQLQESGGGLVQPGGSLRLSCAASGSIFSLNAMGWYRQAPGKQRELVATITSGGSTNYADSVKGRFTISRDNAKNTAYLQMNNLQPEDTAVYYCHVDEVRESIWTTSNLWGQGTQVTVSS
B3: A4-111 (VHH)
VHH: VQLQESGGGLAQPGGSLRLSCAASGSNFSINTMGWYRQRAGKQREFVATITRGGSTNYGDSVKGRFTISRDNAKTTVYLQMNSLRPEDTAVYYCHLDEVRESTWTTSNLWGQGTQVTVSS
B4: A4-H1 (VHH)
VHH: VQLVESGGGLVQPGGSLRLSCAASGRSFSINTMGWFRQAPGKGLEAVAIVTRGGSTYYADSVKGRFTISRDNSKNTLYLQMNSLRAEDTAVYYCHIDEVRQSSWTTSNIWGQGTLVTVSS
B5: A4-H4 (VHH)
VHH: B4 VHH with R26S, S27I, T32L, A46L, V50I, R52P, S55N, L77V, I96V, I109L
B6: A4-H5 (VHH)
VHH: VQLQASGGGFVQPGGSLRLSCAASGRGFSINTMGWFRQAPGKERELVAVVTRGGTTYYADSVKGRFTISRDNSKNTVYLQMNSLRAEDTAVYYCHVDEVRQSSWTTSNLWGQGTQVTVSS
B7: A4-H6 (VHH)
VHH: B6 VHH with Q4V, A5E, F10L, E43G, V49I, Q115L
B8: A4-H3 (VHH)
VHH: B6 VHH with R26S, G27I, T32L, V50I, R52P, T55N, V91T
B9: A4-H2 (VHH)
VHH: B6 VHH with G27S, L46F, T55S, V91T, V96I, L109I
B10: A4-M1 (A4-017 with an N-terminal amino acid sequence MetAlaGln) (VHH)
VHH: QVQLQESGGGLVQPGGSLRLSCAASGSIFSINLMGWYRQAPGKQRELVATITRGGNTNYAGSVKGRFTISRDNAKNTVYLQMNSLRPEDTAVYYCHVDEVRQSSWTTSNLWGQGTQVTVSS
B11: A4-M2 (A4-017 with an N-terminal methionine) (VHH)
VHH: B10 VHH
B12: A4-T1 (A4-017 with a C-terminal 6xHis tag) (VHH)
VHH: B2 VHH with L30I, A32L, S52R, S55N, D60G, A77V, N83S, Q85R, E101Q, I103S
B13: A4-T2 (A4-017 with a C-terminal GGGGS linker followed by a 6xHis tag) (VHH)
VHH: B2 VHH with L30I, A32L, S52R, S55N, D60G, A77V, N83S, Q85R, E101Q, I103S
B14: A4-L1 (A4-017 with a C-terminal IgA hinge followed by a 6xHis tag) (VHH)
VHH: B2 VHH with L30I, A32L, S52R, S55N, D60G, A77V, N83S, Q85R, E101Q, I103S

Each binder was assayed against T1, AAV8 (adeno-associated virus serotype 8) (assay: SPR, AAV on CM5 chip).
T1 construct: also called adeno-associated virus serotype 8
Protocol: (§1) AAV was amine-coupled to a CM5 sensor chip at a density of 500-800 response units (RU). Nanobodies were injected at seven concentrations (1-100 nM) with a flow rate of 45 μL/min, and chip regeneration was performed using glycine-HCl (pH 1.5). Binding curves at different nanobody concentrations were used to calculate kinetic parameters (Kₐ, Kd, KD) (Table 2 and FIG. 2).

Row | Binder | Kd [nM] | koff [s⁻¹] | kon [M⁻¹ s⁻¹]
1 | B1 | 1.81 | 0.00017 | 94000
2 | B2 | 21.7 | 0.00391 | 180000
3 | B3 | 1.88 | 0.00014 | 74500

What follows are binders tested against T2, AAV2 (adeno-associated virus serotype 2, UniProt P03135 1-735) (assay: SPR, AAV on CM5 chip).
T2 construct: also called adeno-associated virus serotype 2
Protocol: as §1

Row | Binder | Kd [nM] | koff [s⁻¹] | kon [M⁻¹ s⁻¹]
4 | B1 | 1.95 | 0.00022 | 113000
5 | B2 | 34.2 | 0.00543 | 159000
6 | B3 | 3.51 | 0.0002 | 56900

What follows are binders tested against T3, AAV9 (adeno-associated virus serotype 9) (assay: SPR, AAV on CM5 chip).
T3 construct: also called adeno-associated virus serotype 9
Protocol: as §1

Row | Binder | Kd [nM] | koff [s⁻¹] | kon [M⁻¹ s⁻¹]
7 | B1 | 472 | 0.00123 | 2610
8 | B2 | 17 | 0.00189 | 111000
9 | B3 | 2 | 0.00025 | 125000

The binders below were run against T4, AAV5 (adeno-associated virus serotype 5) (assay: SPR, AAV on CM5 chip).
T4 construct: also called adeno-associated virus serotype 5
Protocol: as §1

Row | Binder | Kd [nM] | koff [s⁻¹] | kon [M⁻¹ s⁻¹]
10 | B1 | 7.11 | 0.0011 | 155000
11 | B2 | 14 | 0.00139 | 99600
12 | B3 | 1.06 | 9e-05 | 85300

Molecular target: T1, AAV8
Test: SPR, AAV on CM5 chip
Remark: another data set of the same source

Row | Binder | Kd [nM] | koff [s⁻¹] | kon [M⁻¹ s⁻¹]
13 | B4 | 6.82 | 0.00135 | 198000
14 | B5 | 9.44 | 0.00125 | 132000
15 | B6 | 302 | 0.0013 | 4300
16 | B7 | 344 | 0.00164 | 4760
17 | B8 | 9.59 | 0.00128 | 134000
18 | B9 | 1.98 | 0.00028 | 141000

Molecular target: T2, AAV2
Test: SPR, AAV on CM5 chip
Remark: another data set of the same source

Row | Binder | Kd [nM] | koff [s⁻¹] | kon [M⁻¹ s⁻¹]
19 | B4 | 8.51 | 0.00139 | 163000
20 | B5 | 17.2 | 0.0017 | 99000
21 | B7 | 746 | 0.00565 | 7570

Molecular target: T3, AAV9
Test: SPR, AAV on CM5 chip
Remark: another data set of the same source

Row | Binder | Kd [nM] | koff [s⁻¹] | kon [M⁻¹ s⁻¹]
22 | B4 | 127 | 0.00069 | 5420
23 | B5 | 5.91 | 0.00078 | 132000
24 | B6 | 1900 | 0.0058 | 3050
25 | B7 | 1160 | 0.00177 | 1530
26 | B8 | 4.32 | 0.00073 | 169000
27 | B9 | 400 | 0.00188 | 4700

Molecular target: T4, AAV5
Test: SPR, AAV on CM5 chip
Remark: another data set of the same source

Row | Binder | Kd [nM] | koff [s⁻¹] | kon [M⁻¹ s⁻¹]
28 | B4 | 8.76 | 0.00153 | 175000
29 | B5 | 2.86 | 0.00032 | 112000
30 | B6 | 823 | 0.00152 | 1850
31 | B7 | 746 | 0.00565 | 7570
32 | B8 | 3.05 | 0.00048 | 157000
33 | B9 | 8.51 | 0.00139 | 163000

Each binder was assayed against Adeno-associated virus serotype 8 (AAV8) (AAV8) (assay: SPR, AAV amine-coupled to CM5 chip, nanobody 1-50 nM as analyte).

Row | Binder | Kd [nM] | koff [s⁻¹] | kon [M⁻¹ s⁻¹]
34 | B10 | 196 | 0.0014 | 7150
35 | B11 | 171 | 0.001 | 5830
36 | B12 | 202 | 0.00148 | 7310
37 | B13 | 102 | 0.00078 | 7650
38 | B14 | 220 | 0.00093 | 4230

What follows are binders tested against Adeno-associated virus serotype 9 (AAV9) (AAV9) in the same assay as above.

Row | Binder | Kd [nM] | koff [s⁻¹] | kon [M⁻¹ s⁻¹]
39 | B10 | 0.821 | 0.00015 | 183000
40 | B11 | 0.874 | 0.00013 | 149000
41 | B12 | 0.713 | 0.00012 | 168000
42 | B13 | 0.513 | 0.0001 | 195000
43 | B14 | 0.802 | 0.00011 | 137000

What follows are binders tested against Adeno-associated virus serotype 5 (AAV5) (AAV5) in the same assay as above.

Row | Binder | Kd [nM] | koff [s⁻¹] | kon [M⁻¹ s⁻¹]
44 | B10 | 324 | 0.00189 | 5830
45 | B11 | 415 | 0.002 | 4820
46 | B12 | 268 | 0.00193 | 7200
47 | B13 | 234 | 0.00147 | 6280
48 | B14 | 569 | 0.00092 | 1620
